These results are taken from paper PMC10853779.

This experiment has as its target T1, phosphorylated NarL (E. coli nitrate-responsive transcription regulator), wild type (E. coli K12), P0AF28.
T1 chain: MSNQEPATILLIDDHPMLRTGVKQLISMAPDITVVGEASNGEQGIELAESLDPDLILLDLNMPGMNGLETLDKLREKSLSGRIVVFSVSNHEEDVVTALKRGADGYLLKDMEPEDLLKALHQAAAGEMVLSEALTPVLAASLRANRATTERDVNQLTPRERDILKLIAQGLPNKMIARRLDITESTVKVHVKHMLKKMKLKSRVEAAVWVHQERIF
In words: cryo-EM structure. The conditions noted are these: remark: other sources report otherwise.

Broadly, the stoichiometry N is a count of units in the complex or per binding partner.

B1: phosphorylated NarL (E. coli nitrate-responsive transcription regulator), wild type, P0AF28 1-216 (natural protein)
chain: MSNQEPATILLIDDHPMLRTGVKQLISMAPDITVVGEASNGEQGIELAESLDPDLILLDLNMPGMNGLETLDKLREKSLSGRIVVFSVSNHEEDVVTALKRGADGYLLKDMEPEDLLKALHQAAAGEMVLSEALTPVLAASLRANRATTERDVNQLTPRERDILKLIAQGLPNKMIARRLDITESTVKVHVKHMLKKMKLKSRVEAAVWVHQERIF
For the molecule B1, the stoichiometry N turned out to be 2.
